Data taken from US20060233785A1, “Immunointeractive molecules and uses thereof” (priority 2001, published 2006).
Where a chain is given by its changes, count along the chain named.

Experiments:
[1] = system: Hev b 6-specific mAb 1A5.4; experiment: Western blotting of rHev b 6 forms with Hev b 6-specific mAb (Example 8); assay type: binding, mouse
Method: (§1) FIG. 6 is an image of sulphonation abolishing the IgE reactivity of rHev b 6. rHev b 6 (A) and sulphonated rHev b 6 (B) were resolved by 16% SDS-PAGE under non-reducing conditions. Gels were either stained with Coomassie Brilliant Blue (1) or transferred to nitrocellulose. Strips with transferred protein were incubated with the Hev b 6-specific mAb 1A5.4 and binding detected (2). Strips with transferred protein were also incubated with sera from two latex allergic, Hev b 6 sensitized subjects (3 and 4) and one non-latex-allergic, atopic subject (5). The presence or absence of IgE binding was then detected. […] Plates were coated with rHev b 6 and sulphonated rHev b 6 and the presence or absence of IgE-binding detected. As a positive control the Hev b 6-specific mAb 1A5 was used. NB indicates no binding of IgE was detected.
(§2) Four μg of rHev b 6 or sulphonated rHev b 6 were separated on 16% sodium dodecyl sulphate (SDS) polyacrylamide gels with 4% stacking gel. Electrophoresis was performed at 125V for 2 h on a Novex Xcell II Mini-Cell system (Novex, CA, USA). Proteins were visualized with Coomassie Brilliant Blue R-250 (Sigma). The separated proteins were electrophoretically transferred to nitro-cellulose membranes (BA 0.45μ, Schleicher and Schuell, Dassel, Germany) at 25V for 1 hr in transfer buffer. Membranes were blocked for 1 h at RT in 10% skim milk powder (SMP) in PBS, washed once in 0.05% Tween20/PBS and twice in PBS. Washed membranes were incubated for 1 hour at RT with either culture supernatant containing the Hev b 6-specific mAb 1A5.4, diluted 1 in 100 in 1% SMP/PBS or human serum, diluted 1 in 5 in 1% SMP/PBS. For mAb detection membranes were washed as above and incubated for 1 h at RT with goat HRP-conjugated anti-mouse Ig (Silenus), diluted 1 in 2000 in 1% SMP/PBS. For IgE detection, membranes were incubated for 1 h at RT with rabbit anti-human IgE (Dako, Denmark) at 1 in 1000 dilution, followed by swine anti-rabbit IgG-HRP conjugate (Promega) at 1 in 1000 dilution. After washing, the binding of 1A5.4 mAb and patient serum IgE to rHev b 6 was detected using hydrogen peroxide/diaminobenzidine solution.

[2] = system: Hev b 6-specific mAb 1A5.4; experiment: Inhibition ELISA: mAb 1A5.4 binding to rHev b 6; design: species or system mouse; settings: FIG. 8A
Method: Inhibition ELISA were carried out to confirm the lack of IgE reactivity of mutant rHev b 6. Various concentrations of mutant rHev b 6 and rHev b 6, ranging from 0.0016 μg/ml to 125 μg/ml were preincubated with patient sera before the sera were used in ELISA to measure IgE binding to rHev b 6. Incubation of sera with KLH was used as a negative control. Values are presented as percent inhibition±standard deviation. (A) The Hev b 6-specific mAb 1A5.4 was incubated with KLH, mutant rHev b 6 and rHev b 6 and mAb binding to rHev b 6 detected. Sera from three latex-allergic, Hev b 6 sensitised subjects A7 (B), A6 (C) and A8 (D) were incubated with KLH, mutant rHev b 6 and rHev b 6 and IgE binding to rHev b 6 detected. The horizontal line indicates the level below which inhibition was considered to non-specific.
In order to confirm the ability of the mutant rHev b 6 to inhibit Ab binding, rHev b 6 and mutant rHev b 6 were used to inhibit binding of the Hev b 6-specific mAb 1A5.4 to rHev b 6 (FIG. 8A).

[3] = system: IgE from latex allergic subjects; experiment: Western blotting of rHev b 6 forms with IgE of patient sera (Example 8); assay type: binding, human
Method: as §1, with “6 is an image of sulphonation abolishing the IgE reactivity of rHev b 6. rHev b 6 (A) and sulphonated rHev b 6 (B) were resolved by 16% SDS-PAGE under non-reducing conditions.” left out
as §2

IgE binding to rHev b 5 = experiment: Non-specific inhibition assay: IgE binding to rHev b 5; design: species or system human; settings: serum of latex-allergic, Hev b 5 positive subject (data not shown)
Method: To confirm the lack of IgE reactivity of mutant rHev b 6, inhibition ELISA were performed. In these assays, IgE binding to rHev b 6 was inhibited by preincubation of sera from latex allergic, Hev b 6 reactive subjects with either rHev b 6 or mutant rHev b 6 over a range of concentrations. To determine the level of non-specific inhibition inherent in such an assay, an initial non-specific inhibition assay was performed. The serum of a latex-allergic, Hev b 5 positive subject was incubated with rHev b 6 and mutant rHev b 6 and then the ability of IgE from this serum to bind rHev b 5 in an ELISA was measured. When this assay was undertaken, binding of IgE to rHev b5 was inhibited at a maximum of 20% by rHev b 6 and mutant rHev b 6 (data not shown).

[4] = reducing SDS-PAGE (data not shown)
[5] = non-reducing SDS-PAGE, sera of latex allergic subjects

B1: rHev b 6: recombinant Hev b 6 (prohevein) expressed in E. coli from pPROEX-HTa with 6-His tag (protein)
chain: EQCGRQAGGKLCPNNLCCSQWGWCGSTDEYCSPDHNCQSNCKDSGEGVGGGSASNVLATYHLYNSQDHGWDLNAASAYCSTWDANKPYSWRSKYGWTAFCGPVGAHGQSSCGKCLSVTNTGTGAKTTVRIVDQCSNGGLDLDVNVFRQLDTDGKGYERGHITVNYQFVDCGDSFNPLFSVMKSSVIN
modifications: left off: small tags and cut ends
notes: recombinant Hev b 6 (prohevein) expressed in E. coli from pPROEX-HTa with 6-His tag
Hev b 6-specific mAb reactivity in Western blotting ([1]; non-reducing SDS-PAGE): reactive | Hev b 6-specific mAb reactivity in Western blotting [1, 4]: reactive | inhibition of mAb 1A5.4 binding to rHev b 6 [2]: comparable inhibition | IgE reactivity in Western blotting [3, 5]: reactive | IgE reactivity in Western blotting [3, 4]: reactive | maximum inhibition of IgE binding to rHev b5 (non-specific) (IgE binding to rHev b 5): 20%

B2: sulphonated rHev b 6: purified rHev b 6 sulphonated in sulphonation buffer to improve solubility (protein)
chain: B1 chain
modifications: left off: small tags and cut ends
Hev b 6-specific mAb reactivity in Western blotting ([1]; non-reducing SDS-PAGE): reactive | Hev b 6-specific mAb reactivity in Western blotting [1, 4]: reactive | IgE reactivity in Western blotting [3, 5]: failed to react | IgE reactivity in Western blotting [3, 4]: reactive

B3: mutant rHev b 6: rHev b 6 with cysteine to alanine substitution at amino acid 3 of the mature protein (protein)
chain: B1 chain with C3A
modifications: left off: small tags and cut ends
notes: rHev b 6 with cysteine to alanine substitution at amino acid 3 of the mature protein
inhibition of mAb 1A5.4 binding to rHev b 6 [2]: comparable inhibition | maximum inhibition of IgE binding to rHev b5 (non-specific) (IgE binding to rHev b 5): 20%
